The binders below were run against T1, recombinant His-tagged human FRα (ACROBiosystems) (human, UniProt P15328 25-233) (assay: BLI (Octet RED96): antibody on anti-human IgG Fc capture biosensor, His-tagged hFRα as analyte, 1:1 global fit, mean of n=2).
T1 construct: also called hFRα; hFRα antigen; not shown: His tag
Experimental: (§1) The assay buffer used was KB buffer (kinetics buffer, composed of PBS pH 7.4, 0.1% BSA, 0.02% Tween 20, 0.05% sodium azide) supplemented with 0.06% Tween 20 and in some instances also with 1% BSA. The experiment was conducted at 30° C. with a shake speed of 1000 rpm.
(§2) Data analysis was performed using Data Analysis Software 9.0 (ForteBio, Fremont CA). The reference-subtracted binding curves were globally fitted to the 1:1 interaction model to generate the binding kinetic parameters kₒₙ, koff, and the dissociation constant KD.

T1 sequence (P15328 25-233 limits assumed): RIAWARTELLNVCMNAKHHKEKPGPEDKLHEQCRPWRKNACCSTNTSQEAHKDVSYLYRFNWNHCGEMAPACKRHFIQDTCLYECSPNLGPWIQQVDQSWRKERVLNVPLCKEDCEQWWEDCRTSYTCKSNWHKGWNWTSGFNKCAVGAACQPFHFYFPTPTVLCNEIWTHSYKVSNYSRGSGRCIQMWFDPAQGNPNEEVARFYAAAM

Kd [nM] | Binder
100 | v30389 (antibody, human IgG1, kappa, Humanized IgG1/kappa, HetFc; also called 3bH4L) heavy 1: EVQVLESGGGLVQPGGSLRLSCAVSGFSLSSYGVSWVRQAPGKGLEWIGAVNSGGSAYYADSVKGRSTISRDNSKNTVYLQMNSLRAEDTAVYYCARSGSGYPMDYLAIWGQGTLVTVSSASTKGPSVFPLAPSSKSTSGGTAALGCLVKDYFPEPVTVSWNSGALTSGVHTFPAVLQSSGLYSLSSVVTVPSSSLGTQTYICNVNHKPSNTKVDKKVEPKSCDKTHTCPPCPAPELLGGPSVFLFPPKPKDTLMISRTPEVTCVVVDVSHEDPEVKFNWYVDGVEVHNAKTKPREEQYNSTYRVVSVLTVLHQDWLNGKEYKCKVSNKALPAPIEKTISKAKGQPREPQVYVYPPSRDELTKNQVSLTCLVKGFYPSDIAVEWESNGQPENNYKTTPPVLDSDGSFALVSKLTVDKSRWQQGNVFSCSVMHEALHNHYTQKSLSLSPG heavy 2: not shown light: DYQMTQSPSSVSASVGDRVTITCRASQSIGDWLAWYQQKPGKAPKLLIYEASTLASGVPSRFSGSGSGTDFTLTISSVQPEDAATYYCQQGYGRSNVDNIFGGGTKVEVKRTVAAPSVFIFPPSDEQLKSGTASVVCLLNNFYPREAKVQWKVDNALQSGNSQESVTEQDSKDSTYSLSSTLTLSKADYEKHKVYACEVTHQGLSSPVTKSFNRGEC
160 | v31425 (antibody, human IgG1, kappa, Humanized IgG1/kappa, HomoFc; also called 3fH4L) heavy: not shown light: DYQMTQSPSSVSASVGDRVTITCRASQSIGDWLAWYQQKPGKAPKLLIYEASTLASGVPSRFSGSGSGTDFTLTISSVQPEDAATYYCQQGYGRSNVDNIFGGGTKVEVKRTVAAPSVFIFPPSDEQLKSGTASVVCLLNNFYPREAKVQWKVDNALQSGNSQESVTEQDSKDSTYSLSSTLTLSKADYEKHKVYACEVTHQGLSSPVTKSFNRGEC
110 | v31423 (antibody, human IgG1, kappa, V domains shown, Humanized IgG1/kappa, HomoFc; also called 3dH4L) VH: EVQLLESGGGLVQPGGSLRLSCAVSGFSLSSYGVSWVRQAPGKGLEWIGAVNSGGSAYYADSVKGRSTISRDTSKNTVYLQMNSLRAEDTAVYYCARSGSGYPMDYLAIWGQGTLVTVSS VL: DYQMTQSPSSVSASVGDRVTITCRASQSIGDWLAWYQQKPGKAPKLLIYEASTLASGVPSRFSGSGSGTDFTLTISSVQPEDAATYYCQQGYGRSNVDNIFGGGTKVEVKR
180 | v31422 (antibody, human IgG1, kappa, Humanized IgG1/kappa, HomoFc; also called 3cH4L) heavy: not shown light: DYQMTQSPSSVSASVGDRVTITCRASQSIGDWLAWYQQKPGKAPKLLIYEASTLASGVPSRFSGSGSGTDFTLTISSVQPEDAATYYCQQGYGRSNVDNIFGGGTKVEVKRTVAAPSVFIFPPSDEQLKSGTASVVCLLNNFYPREAKVQWKVDNALQSGNSQESVTEQDSKDSTYSLSSTLTLSKADYEKHKVYACEVTHQGLSSPVTKSFNRGEC
110 | v31424 (antibody, human IgG1, kappa, Humanized IgG1/kappa, HomoFc; also called 3eH4L) heavy: not shown light: DYQMTQSPSSVSASVGDRVTITCRASQSIGDWLAWYQQKPGKAPKLLIYEASTLASGVPSRFSGSGSGTDFTLTISSVQPEDAATYYCQQGYGRSNVDNIFGGGTKVEVKRTVAAPSVFIFPPSDEQLKSGTASVVCLLNNFYPREAKVQWKVDNALQSGNSQESVTEQDSKDSTYSLSSTLTLSKADYEKHKVYACEVTHQGLSSPVTKSFNRGEC

The binders below were run against T1, recombinant His-tagged human FRα … (assay: BLI (Octet RED96) as in Example 8: antibody captured, His-tagged hFRα as analyte, mean of n=2).
Experimental: as §1, §2

Kd [nM] | Binder
7.22 | v35358 (antibody, human IgG1, kappa, V domains shown) VH: EVQLLESGGGLVQPGGSLRLSCAVSGFSLSSYGVSWVRQAPGKGLEWIGAVNSGGSAYYADSFKGRSTISRDNSKNTVYLQMNSLRAEDTAVYYCARSGSGYPMDYHPIWGQGTLVTVSS VL: DYQMTQSPSSVSASVGDRVTITCRASQSIWYWLAWYQQKPGKAPKLLIYEASTLASGVPSRFSGSGSGTDFTLTISSVQPEDAATYYCQQGYGRWHILNIFGGGTKVEVKR
3.55 | v35350 (antibody, human IgG1, kappa, V domains shown) VH: EVQLLESGGGLVQPGGSLRLSCAVSGFSLSLYGVSWVRQAPGKGLEWIGAVNSGGSAYYADSFKGRSTISRDNSKNTVYLQMNSLRAEDTAVYYCARSGSGYPMDYHPIWGQGTLVTVSS VL: DYQMTQSPSSVSASVGDRVTITCRASQSIWYWLAWYQQKPGKAPKLLIYEASTLASGVPSRFSGSGSGTDFTLTISSVQPEDAATYYCQQGYGRWHILNIFGGGTKVEVKR
3.13 | v35354 (antibody, human IgG1, kappa, V domains shown) VH: EVQLLESGGGLVQPGGSLRLSCAVSGFSLSLYGVSWVRQAPGKGLEWIGAVNSGGSAYYADSFKGRSTISRDNSKNTVYLQMNSLRAEDTAVYYCARSGSGYPMDYLAIWGQGTLVTVSS VL: DYQMTQSPSSVSASVGDRVTITCRASQSIWYWLAWYQQKPGKAPKLLIYEASTLASGVPSRFSGSGSGTDFTLTISSVQPEDAATYYCQQGYGRWHILNIFGGGTKVEVKR
4.97 | v36168 (antibody, human IgG1, kappa, V domains shown) VH: EVQLLESGGGLVQPGGSLRLSCAVSGFSLSLYGVSWVRQAPGKGLEWIGSVNSGGSAYYADSVKGRSTISRDNSKNTVYLQMNSLRAEDTAVYYCARSGSGYPMDYLAIWGQGTLVTVSS VL: DYQMTQSPSSVSASVGDRVTITCRASQSIWYWLAWYQQKPGKAPKLLIYEASTLASGVPSRFSGSGSGTDFTLTISSVQPEDAATYYCQQGYGRWHILNIFGGGTKVEVKR

Further lines, the binder ahead of its results:

Binder | Kd [nM]
v35342 (antibody, human IgG1, kappa, V domains shown) VH: EVQLLESGGGLVQPGGSLRLSCAVSGFSLSLYGVSWVRQAPGKGLEWIGSLNSGGSAYYADSVKGRSTISRDNSKNTVYLQMNSLRAEDTAVYYCARSGSGYPMDYLAIWGQGTLVTVSS VL: DYQMTQSPSSVSASVGDRVTITCRASQSIWYWLAWYQQKPGKAPKLLIYEASTLASGVPSRFSGSGSGTDFTLTISSVQPEDAATYYCQQGYGRWHILNIFGGGTKVEVKR | 4.1
v35347 (antibody, human IgG1, kappa, V domains shown) VH: EVQLLESGGGLVQPGGSLRLSCAVSGFSLSLYGVSWVRQAPGKGLEWIGAVNSGGSAYYADSFKGRSTISRDNSKNTVYLQMNSLRAEDTAVYYCARSGSGYPMDYHPIWGQGTLVTVSS VL: DYQMTQSPSSVSASVGDRVTITCRASQSIGDWLAWYQQKPGKAPKLLIYEASTLASGVPSRFSGSGSGTDFTLTISSVQPEDAATYYCQQGYGRSNVDNIFGGGTKVEVKR | 8.65
v36167 (antibody, human IgG1, kappa, V domains shown) VH: EVQLLESGGGLVQPGGSLRLSCAVSGFSLSSYGVSWVRQAPGKGLEWIGAVNSGGSAYYADSFKGRSTISRDNSKNTVYLQMNSLRAEDTAVYYCARSGSGYPMDYLAIWGQGTLVTVSS VL: DYQMTQSPSSVSASVGDRVTITCRASQSIWYWLAWYQQKPGKAPKLLIYEASTLASGVPSRFSGSGSGTDFTLTISSVQPEDAATYYCQQGYGRWHILNIFGGGTKVEVKR | 7.29

Source: US20240424125A1 (Zymeworks, published 2024)
